Target: CDK2 protein (purchased from Sino Biological Inc.) (UniProt P24941 1-298)
Test: SPR; CD147ICD immobilised on a CM5 chip; CDK2 injected at 30 µL/min; BSA signal subtracted
Conditions: both partners purified

B1: intracellular portion of CD147 (ICD, 230-269) (domain or fragment)
chain: EKRRKPEDVLDDDDAGSAPLKSSGQHQNDKGKNVRQRNSS
notes: CD147 (basigin), human, residues 230-269, intracellular portion; also called CD147’s intracellular domain; CD147’s intracellular segment; source: E. coli OrigamiB (DE3), purified (expressed and purified in the same way as for CD147)
Kd: 16.7 µM

Source: article PMC8632965, “CD98-induced CD147 signaling stabilizes the Foxp3 protein to maintain tissue homeostasis” (Cellular and Molecular Immunology, 2021)
